Test system: MS2 coat protein
Assay: apparent KD of MS2 coat protein; designed switch direction (-1 OFF switch, 1 ON switch): 1; higher = weaker reporter binding
Method in brief: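 The reported apparent KD is a per-design median over clusters, from curve fits of normalised cluster fluorescence. Protein titrations used SNAP-549-labelled MS2 coat protein, doubled from 0.7 or 1.5 nM to 3 µM, in Tris-HCl pH 7.5 buffer with KCl, MgCl2, BSA, DTT, tRNA and Tween-20, with no input, 200 uM small-molecule ligand, or an oligonucleotide input. The RNA switches were transcribed on Illumina chips by stalled E. coli RNA polymerase.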

[1] = input ligand: microRNA oligo, concentration not stated
[2] = Eterna round: R95, input ligand: FMN 200 uM
[3] = Eterna round: R95, input ligand: microRNA oligo, concentration not stated
[4] = Eterna round: R95, input ligand: none

Sequence | apparent KD of MS2 coat protein (input ligand: FMN 200 uM) [nM] | apparent KD of MS2 coat protein [1] [nM] | apparent KD of MS2 coat protein (input ligand: none) [nM] | apparent KD of MS2 coat protein [2] [nM] | apparent KD of MS2 coat protein [3] [nM] | apparent KD of MS2 coat protein [4] [nM]
GUUGAGAAAUGAGGAUAUGCAUGGAAGACACAUGAGGAUCACCCAUGUGGGAGGGAAACCAGGAGGUAGAAGGCAUUGGGAAAC [AK SSNG2-V2-24] (Eterna round: R96, puzzle: Same State NG 2) | 35.7 | 35.5 | 55.1 | – | – | –
UUAGAAUUGCAAGGAUAUCUUAUUUAGAUAGUAAGAGAAGGUGCUUUAUAGUUACAUGAGGAUCACCCAUGUAUUUCUUUUUAU [JR_SSNG1_Sub061] (Eterna round: R96, puzzle: Same State NG 1) | – | 16.6 | – | – | – | –
UUAAUUAAUUAAUUAUACAUGAGGAUCACCCAUGUAAGUGAUCAGGAUAUCAGCUCGAUUAGAGCUGAGAAGGGAUACAUGUAA [SSNG3/13-A2] (Eterna round: R96, puzzle: Same State NG 3) | 142 | 164 | 191 | – | – | –
UGGCUCAGAGCAGGAUAUAUGUGGUCACAUGAGGAUCACCCAUGUCUCGAGCUUCGGCUCGAGGCAUAGAAGGGCUCUGAGCCU [SSNG2/5-B3] (Eterna round: R96, puzzle: Same State NG 2) | 704 | 21.4 | 85.9 | – | – | –
AACAAUCUAUCUGAGGAUAUCAUGAAAUAAACAUGAGGAUCACCCAUGUGCAUGAAAACUGCAUAUGAGAAGGCAGAUAGAUUGA [salish99_ss2_r3_038] (puzzle: Same State 2) | – | – | – | 54.8 | 415 | 472
GUUACAUGAGGAUCACCCAUGUAUGUGUGGGAGUAAGUGUCUUAGGAUAUCUAGUAUUAAAUUUAAGAGAAGGAAGAUUGUUGU [JMF's solution 57] (Eterna round: R96, puzzle: Same State NG 3) | 140 | 78.9 | 110 | – | – | –
AGGCGGAUAUCACAGGAUAUGUGCGCGUUCACAUGAGGAUCACCCAUGUAAAGGACGAGCCAAAAGCAGAAGGGUGACCACGCGA [Aedorlebe] (puzzle: Same State 2) | – | – | – | 15.3 | 14.8 | 25.4
ACGCAGCUGGGUGAGGAUAUCGGUGGUACUACAUGAGGAUCACCCAUGUCCGAAGCUCGGACCUCCGAGAAGGCGCCCGGCUGCG [Soinraesar Omei Mod 3] (puzzle: Same State 2) | – | – | – | – | 184 | –
AAAGCCCGUGCUAAGGAUAUGCGUACUCCUACAUGAGGAUCACCCAUGUCCCGCCGAAAAGGAAGGCAGAAGGUAGCACGAGCAA [Teerarti] (puzzle: Same State 2) | – | – | – | 53.7 | 96.5 | 102
UUAAUGAUGUAAGGAUAUACAUGAGGAUUUCUCGUAGAAGGUACAGGACAUGAGGAUCACCCAUGUAUCGCUCCGUAGAGCGUA [JL SSNG1 1.11] (Eterna round: R96, puzzle: Same State NG 1) | 136 | 292 | 356 | – | – | –
GGAGAACAUGAGGAUCACCCAUGUGAGCGGUAGCUAGGAUAUGCGGGAAGGAAGAGAGAAGCAGAAGGAGUCGGUA [JR_SS1_Sub033] (puzzle: Same State 1) | – | – | – | – | 34.2 | –
GUGGUCAGACAUGAGGAUCACCCAUGUGGAAUAAAUAAGGUUUAGGAUAUGGAAUAUAGGAUAUACCAGAAGGAAAGGUUGGUG (Eterna round: R96, puzzle: Same State NG 3) | 176 | 75.4 | 133 | – | – | –
AGAUCAUGACGAGGAUAUGGUACAUGAGGAUCACCCAUGUAUGUACCACGACGCGUACGUCGAAUCCAGAAGGCGUCGUGGUCA [JL SSNG2 1.07] (Eterna round: R96, puzzle: Same State NG 2) | 23.3 | 27.7 | 41.6 | – | – | –
GGAAUAUGAUGUUACAUGAGGAUCACCCAUGUAGUGACAACUAAGGAUAUCUGAAAAGAAGGAGAGGAGAAGGUAGGAUCAUAA [AK SSNG3-V2-14.1] (Eterna round: R96, puzzle: Same State NG 3) | 25.7 | 23.1 | 36 | – | – | –
UUAGAAUUGCAAGGAUAUCUAAUUUAGAUAGUAAGAGAAGGUGCUUUAUAGUUACAUGAGGAUCACCCAUGUUUUUUUUUUUAU [JR_SSNG1_Sub060] (Eterna round: R96, puzzle: Same State NG 1) | 42.3 | 36.3 | 49.9 | – | – | –
ACAUGAGAGAUAGGAUAUCUUGUACCUACAUGUGACAUGAGGAUCACCCAUGUGGUAAGUAUGAGAGAGAAGGAUCAGAUAUGU [Equivalence 36 - Jieux - Same State NG 2] (Eterna round: R96, puzzle: Same State NG 2) | 14.1 | 14.3 | 21.2 | – | – | –

Sequence | apparent KD of MS2 coat protein (input ligand: FMN 200 uM) [nM] | apparent KD of MS2 coat protein [1] [nM] | apparent KD of MS2 coat protein (input ligand: none) [nM] | apparent KD of MS2 coat protein [2] [nM] | apparent KD of MS2 coat protein [3] [nM] | apparent KD of MS2 coat protein [4] [nM]
GUUAAACAUGAGGAUCACCCAUGUCAUCUAAGUCGAGGAUAUGGGAAUUAAUUAAUUAAACCAGAAGGCGAAAAUG [Mat - Same State 1 - D96] (puzzle: Same State 1) | – | – | – | 39 | 174 | 126
UAAGAACAUGAGGAUCACCCAUGUGGAAAGAACACAGGAUAUCAUAGAAGGACGCGACUAUGAGAAGGGUGACACG [Lequat] (puzzle: Same State 1) | – | – | – | 390 | 104 | 218
UUGAAGAAUUAAGGAUAUUGAGUACAUAUGUAAAACAUGAGGAUCACCCAUGUGGGUUGCGGUAUCGAGAAGGUAAAUUAAUAG [Mat - same State NG 2 - JL mod - D70] (Eterna round: R96, puzzle: Same State NG 2) | 87 | 67.6 | 96.3 | – | – | –
UUUAGUUGCGGGCAGGAUAUGUAUUAAAAUACAUGAGGAUCACCCAUGUGGGACCGAAAAGGUCUACAGAAGGGCCAAUCGCGAC [Laonerce - 21] (puzzle: Same State 2) | – | – | – | 17.1 | 53.3 | 77.1
AAAACAUGACGAGGAUAUGGUACAUGAGGAUCACCCAUGUAUGUACCACGACGGAAACGUCGAAUCCAGAAGGCGUCAUGAAAA [Mat - Same State NG 2 - JL mod - D25] (Eterna round: R96, puzzle: Same State NG 2) | 34.6 | 173 | 194 | – | – | –
UUUAUUUAUGCAGGAUAUGAUUAACAUGAGGAUCACCCAUGUGGUGUUGUGAGUAAGGAGAGUGAUCAGAAGGGCAUUUUUUUU [JMF's solution 76] (Eterna round: R96, puzzle: Same State NG 2) | 610 | 396 | 487 | – | – | –
UGACACACGGCAGGAUAUCGAUUCCAAAGGAAUCGAGAAGGGCCUCAUGUCGUGGAAACGUGACAUGAGGAUCACCCAUGUCGC [Omei SS(NG)1 Cv16] (Eterna round: R96, puzzle: Same State NG 1) | 65 | 3.72 | 64.2 | – | – | –
UGUCCAGCCUGAGCUGGACAAAAGCAUGUACAUGAGGAUCACCCAUGUUCAUGUACAAGCUUUUUGCUCGUCUUACC [salish99_208a_r3_083] (puzzle: Sensor for hsa-mir-208a) | – | – | – | 464 | 15.9 | 610
GUGGUCAGACAUGAGGAUCACCCAUGUGGAAUAAAUAACGUACAGGAUAUGGAAUAUAGGAUAUACUAGAAGGGUAGAUUGGUG (Eterna round: R96, puzzle: Same State NG 3) | 110 | 75.3 | 87.7 | – | – | –
UCUUGGUUUUUGCUCGUUUUUUGUGUUGAACAUGAGGAUCACCCAUGUAUUGUACGGUCCGAUUUAAUAGUGGUCCG [JMF 19] (puzzle: Sensor for hsa-mir-208a) | – | – | – | 24.4 | 14.8 | 27
GUGGUGGGUUGAGGAUAUUGGUUGUUGUUGUUCUACAUGAGGAUCACCCAUGUGGGUUGUGGUUUUGAGAAGGUUGGUUGCUGG [salish99_SSNG2_r04_049] (Eterna round: R96, puzzle: Same State NG 2) | 45.2 | 31.3 | 42.8 | – | – | –
AUUGCUGUCACAGGAUAUCAUGCGGAAAUCGCGUGAGAAGGGUGGACUCUGUCAUUCACGGAGGACAUGAGGAUCACCCAUGUC [SS NG10LRO18] (Eterna round: R96, puzzle: Same State NG 1) | 508 | 29 | 62.4 | – | – | –
AUUUAACAAGCUUUUUGCUCGUCUUAUAAACAUGAGGAUCACCCAUGUAAUAGCGUGAGAGUAAUUAUAUAAAUAAU [JMF 86] (puzzle: Sensor for hsa-mir-208a) | – | – | – | 16.4 | 43 | 15.4
GUGGUCAGACAUGAGGAUCACCCAUGUGGAAUAAAUAACGGACAGGAUAUAGAAUAUAGGAUAUACUAGAAGGGUUGAUUGGUG (Eterna round: R96, puzzle: Same State NG 3) | – | 45.1 | – | – | – | –
GUGGUCAGACAUGAGGAUCACCCAUGUGGAAUAAAUAAGGAGAAGGAUAUUGAAUAUAGGAUAUACAAGAAGGUCUGGUUGGUG (Eterna round: R96, puzzle: Same State NG 3) | – | 71.3 | – | – | – | –
UAUUAGAUCCGAGGAUAUCCUUAUUAGAAACAUGAGGAUCACCCAUGUAAAGGGAAUUAUUUGUAGGAGAAGGCGGAUUUAGUU [JR_SSNG2_Sub056] (Eterna round: R96, puzzle: Same State NG 2) | – | 41.7 | – | – | – | –

— the supplement of paper PMC9170038
